Assay results from publication PMC6889141, “In vivo methylation of OLA1 revealed by activity-based target profiling of NTMT1† †Electronic supplementary information (ESI) available. See DOI: 10.1039/c9sc02550b” (Chemical Science, 2019).

Target: T1, N-Terminal methyltransferase 1 (NTMT1), wild type (UniProt Q9BV86 1-223)
T1 construct: N-terminal methyltransferase 1 (NTMT1), wild type; they probably stand in the ESI; also called wt NTMT1
T1 sequence (looked up): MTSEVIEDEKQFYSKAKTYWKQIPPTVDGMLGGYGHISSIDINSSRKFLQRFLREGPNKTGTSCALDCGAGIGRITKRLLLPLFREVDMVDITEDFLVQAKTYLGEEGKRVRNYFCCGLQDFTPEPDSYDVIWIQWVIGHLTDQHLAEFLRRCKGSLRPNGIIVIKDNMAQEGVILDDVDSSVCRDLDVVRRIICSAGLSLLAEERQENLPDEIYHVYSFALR
Assay: ITC; affinity of RCC1 peptide with wt NTMT1; conditions, and which of the two was titrated, not told in the text shown
Conditions: both partners purified

B1: RCC1p, peptide of the first 10 N-terminal residues of RCC1 after initial methionine removal (peptide, UniProt P18754 2-11, looked up)
peptide: SPKRIAKRRS
notes: RCC1, the first 10 N-terminal residues after removal of the initial methionine (residues 2-11 counted with the methionine as 1); also called RCC1 peptide; source: synthetic peptide
- Kd: 1220 ± 20 nM
